The supplement of paper PMC12667976
± gives the standard error.

B1: library; numbered along this chain (parent)
chain: MATDAALRRLLRLHRTEIAVAVDSAFPLLHALADHDVVPEDKFQETLHLKEKEGCPQAFHALLSWLLTQDSTAILDFWRVLFKDYNLERYGRLQPILDSFPKDVDLSQPRKGRKPPAVPKALVPPPRLPTKRKASEEARAAAPAALTPRGTASPGSQLKAKPPKKPESSAEQQRLPLGNGIQTMSASVQRAVAMSSGDVPGARGAVEGILIQQVFESGGSKKCIQVGGEFYTPSKFEDSGSGKNKARSSSGPKPLVRAKGAQGAAPGGGEARLGQQGSVPAPLALPSDPQLHQKNEDECAVCRDGGELICCDGCPRAFHLACLSPPLREIPSGTWRCSSCLQATVQEVQPRAEEPRPQEPPVETPLPPGLRSAGEEVRGPPGEPLAGMDTTLVYKHLPAPPSAAPLPGLDSSALHPLLCVGPEGQQNLAPGARCGVCGDGTDVLRCTHCAAAFHWRCHFPAGTSRPGTGLRCRSCSGDVTPAPVEGVLAPSPARLAPGPAKDDTASHEPALHRDDLESLLSEHTFDGILQWAIQSMARPAAPFPS

Variants of: B1
Experiment: AIRE transcriptional activation functional score (insulin promoter-GFP; nonsense median 0, synonymous median 1) (normalised score); higher = higher AIRE activity (more reporter activation)
Settings: with insulin promoter-GFP reporter in HEK293
Protocol: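 Deep mutational scan of full-length human AIRE (codon-optimized cDNA, DT-POPCode NNN libraries over three regions) integrated at a Bxb1 landing pad in HEK293 cells carrying an insulin core promoter-GFP reporter at a Flp-In site. Cells were sorted for the top 10% GFP about 14 days after transfection. Variant frequency log-ratios (select vs non-select, TileSeq) were rescaled so that the nonsense median is 0 and the synonymous median is 1, then averaged over biological replicates.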

| Variant | AIRE transcriptional activation functional score |
| --- | --- |
| N295R | 0.795 ± 0.31 |
| N295S | 0.92 ± 0.26 |
| N295G | 0.969 ± 0.24 |
| N295C | 1.01 ± 0.33 |
| N295I | 0.856 ± 0.15 |
| N295V | 1.09 ± 0.33 |
| N295L | 1.17 ± 0.36 |
| N295M | -0.37 ± 0.08 |
| N295F | 0.892 ± 0.34 |
| N295E | 1.27 ± 0.02 |
| N295H | 0.879 ± 0.46 |
| N295W | 0.869 ± 0.029 |
| N295T | 1.14 ± 0.23 |
| N295K | 1.03 ± 0.083 |
| N295A | 0.906 ± 0.33 |
| N295D | 0.921 ± 0.23 |
| N295P | 1.05 ± 0.3 |
| N295Y | 1.08 ± 0.14 |
| N295Q | 0.995 ± 0.28 |
| C299H | 0.488 ± 0.068 |
| C299L | 0.726 ± 0.28 |
| C299N | 0.262 ± 0.084 |
| C299S | 0.703 ± 0.26 |
| C299P | 0.634 ± 0.28 |

| Variant | AIRE transcriptional activation functional score |
| --- | --- |
| C299W | 0.647 ± 0.032 |
| C299R | 0.523 ± 0.26 |
| C299M | 0.737 ± 0.18 |
| C299V | 0.501 ± 0.26 |
| C299D | 0.505 ± 0.11 |
| C299G | 0.55 ± 0.22 |
| C299Q | 0.508 ± 0.37 |
| C299Y | 0.416 ± 0.24 |
| C299K | 0.668 ± 0.1 |
| C299A | 0.615 ± 0.18 |
| C299T | 0.711 ± 0.31 |
| C299E | 0.32 ± 0.12 |
| C299F | 0.664 ± 0.29 |
| C299I | 0.55 ± 0.37 |
| H292T | 1.13 ± 0.32 |
| H292K | 0.992 ± 0.13 |
| H292Q | 0.508 ± 0.22 |
| H292L | 0.55 ± 0.36 |
| H292D | 0.892 ± 0.31 |
| H292G | 1.12 ± 0.18 |
| H292P | 0.865 ± 0.43 |
| H292V | 0.936 ± 0.42 |
| H292N | 1.03 ± 0.019 |
| H292W | 1.03 ± 0.047 |

| Variant | AIRE transcriptional activation functional score |
| --- | --- |
| H292R | 0.856 ± 0.19 |
| H292S | 0.599 ± 0.16 |
| H292A | 0.816 ± 0.34 |
| H292M | 1.7 ± 0.18 |
| H292E | -0.172 ± 0.071 |
| H292I | 0.603 ± 0.25 |
| H292F | 0.915 ± 0.5 |
| H292Y | 0.957 ± 0.47 |
| H292C | 0.815 ± 0.12 |
| E296I | 0.711 ± 0.53 |
| E296T | 0.948 ± 0.19 |
| E296Q | 1.06 ± 0.12 |
| E296A | 0.699 ± 0.31 |
| E296C | 0.394 ± 0.58 |
| E296R | 0.658 ± 0.33 |
| E296G | 1.03 ± 0.25 |
| E296P | 0.799 ± 0.32 |
| E296L | 0.781 ± 0.23 |
| E296N | 1.28 ± 0.28 |
| E296Y | 0.486 ± 0.15 |
| E296H | 1.76 ± 0.052 |
| E296D | 0.711 ± 0.29 |
| E296K | 0.642 ± 0.15 |
| E296V | 0.556 ± 0.39 |

| Variant | AIRE transcriptional activation functional score |
| --- | --- |
| E296S | 0.991 ± 0.26 |
| E296W | 1.44 ± 0.05 |
| E296F | 1.09 ± 0.11 |
| E296M | 1.14 ± 0.098 |
| G305E | 0.782 ± 0.13 |
| G305C | 1.06 ± 0.18 |
| G305F | 0.497 ± 0.098 |
| G305D | 1.1 ± 0.17 |
| G305A | 0.453 ± 0.26 |
| D304R | 0.879 ± 0.43 |
| D304G | 0.56 ± 0.29 |
| D304N | 0.503 ± 0.28 |
| D304Y | 0.808 ± 0.47 |
| D304A | 0.858 ± 0.16 |
| D304H | 1.13 ± 0.042 |
| D304L | 0.299 ± 0.18 |
| D304P | 0.387 ± 0.11 |
| D304C | 1.29 ± 0.03 |
| D304E | 0.883 ± 0.2 |
| D304K | 1.11 ± 0.28 |
| D304I | 0.384 ± 0.081 |
| D304T | 1.15 ± 0.11 |
| D304S | 1.42 ± 0.18 |
| D304W | 1.21 ± 0.059 |

| Variant | AIRE transcriptional activation functional score |
| --- | --- |
| D304V | 0.99 ± 0.34 |
| D304M | 1.31 ± 0.084 |
| D304F | 0.0957 ± 0.81 |
| R303C | 1.23 ± 0.11 |
| R303T | 1.36 ± 0.21 |
| R303A | 0.349 ± 0.41 |
| R303E | 0.933 ± 0.23 |
| R303G | 1.34 ± 0.12 |
| R303Y | 0.774 ± 0.15 |
| R303N | 1.04 ± 0.37 |
| R303F | 1.47 ± 0.086 |
| R303H | 1.12 ± 0.21 |
| R303W | 1.02 ± 0.018 |
| R303K | 1.13 ± 0.13 |
| R303D | 0.544 ± 0.19 |
| R303P | 1.09 ± 0.099 |
| R303S | 0.997 ± 0.2 |
| R303M | 1.28 ± 0.062 |
| R303I | 1.32 ± 0.1 |
| R303L | 1.12 ± 0.2 |
| R303Q | 1.23 ± 0.3 |
| R303V | 1.16 ± 0.22 |
| V301C | 1.08 ± 0.12 |
| V301L | 1.01 ± 0.19 |

| Variant | AIRE transcriptional activation functional score |
| --- | --- |
| V301E | 1.05 ± 0.057 |
| V301S | 1 ± 0.43 |
| V301T | 0.963 ± 0.24 |
| V301I | 0.84 ± 0.24 |
| V301N | 0.743 ± 0.3 |
| V301F | 1.29 ± 0.21 |
| V301R | 1.34 ± 0.22 |
| V301M | 0.84 ± 0.049 |
| V301Q | 1.08 ± 0.1 |
| V301H | 1.56 ± 0.16 |
| V301P | 0.662 ± 0.28 |
| V301W | 2 ± 0.097 |
| V301K | 1.09 ± 0.31 |
| V301A | 1.01 ± 0.26 |
| V301D | 0.644 ± 0.28 |
| V301G | 1.08 ± 0.16 |
| V301Y | 1.14 ± 0.17 |
| L291S | 1.1 ± 0.44 |
| L291F | 1.15 ± 0.22 |
| L291E | 0.759 ± 0.11 |
| L291V | 1.03 ± 0.21 |
| L291C | 1.01 ± 0.29 |
| L291A | 0.566 ± 0.33 |
| L291M | 1.29 ± 0.025 |

| Variant | AIRE transcriptional activation functional score |
| --- | --- |
| L291H | 0.333 ± 0.37 |
| L291Q | 0.902 ± 0.21 |
| L291G | 1.06 ± 0.14 |
| L291T | 0.708 ± 0.16 |
| L291W | 0.706 ± 0.12 |
| L291N | 0.0689 ± 0.21 |
| L291P | 1.26 ± 0.12 |
| L291Y | 1.69 ± 0.043 |
| L291I | 0.864 ± 0.069 |
| L291K | 0.675 ± 0.18 |
| L291R | 0.656 ± 0.47 |
| L291D | 0.351 ± 0.24 |
| Q290L | 0.646 ± 0.18 |
| Q290S | 0.97 ± 0.17 |
| Q290P | 0.267 ± 0.4 |
| Q290A | 0.939 ± 0.38 |
| Q290I | 0.465 ± 0.35 |
| Q290M | 1.27 ± 0.14 |
| Q290F | 1.21 ± 0.16 |
| Q290V | 1.04 ± 0.32 |
| Q290G | 1.02 ± 0.32 |
| Q290Y | 1.48 ± 0.15 |
| Q290W | 1.1 ± 0.043 |
